This passage reports abundance fitness results from the Human Domainome abundance scans (Beltran et al. 2025).

± gives the uncertainty stated by the source.

First the molecules themselves.
B1: Homeobox protein SIX3, residues 212 to 262; numbered along this chain, O95343 (parent)
chain: CFKERTRSLLREWYLQDPYPNPSKKRELAQATGLTPTQVGNWFKNRRQRDR

Variants of B1 are the subject of the data set. Kind of data set: abundance fitness (aPCA) (normalised: wild type 0, dead -1); higher = more abundant; growth selection in yeast, the domain comes from the species named. To be noted: Homo sapiens.
Regarding CFKERTRSSLREWYLQDPYPNPSKKRELAQATGLTPTQVGNWFKNRRQRDR [L9S], the abundance fitness was -0.733 ± 0.074.

Take CFKERTRSILREWYLQDPYPNPSKKRELAQATGLTPTQVGNWFKNRRQRDR [L9I]: the abundance fitness was -0.095 ± 0.084.

On to CFKERTRSCLREWYLQDPYPNPSKKRELAQATGLTPTQVGNWFKNRRQRDR [L9C], for which the abundance fitness was -0.694 ± 0.18.

Take CFKERTRSQLREWYLQDPYPNPSKKRELAQATGLTPTQVGNWFKNRRQRDR [L9Q]: the abundance fitness was -0.266 ± 0.067.

For CFKERTRSFLREWYLQDPYPNPSKKRELAQATGLTPTQVGNWFKNRRQRDR [L9F], the abundance fitness is -0.51 ± 0.22.

Turning to CFKERTRSGLREWYLQDPYPNPSKKRELAQATGLTPTQVGNWFKNRRQRDR [L9G], the abundance fitness is -0.726 ± 0.05.

As for CFKERTRSVLREWYLQDPYPNPSKKRELAQATGLTPTQVGNWFKNRRQRDR [L9V], the abundance fitness was -0.071 ± 0.052.

For the variant CFKERTRSKLREWYLQDPYPNPSKKRELAQATGLTPTQVGNWFKNRRQRDR [L9K], the abundance fitness was -0.226 ± 0.073.

Turning to CFKERTRSNLREWYLQDPYPNPSKKRELAQATGLTPTQVGNWFKNRRQRDR [L9N], the abundance fitness is -0.8 ± 0.15.

Take CFKERTRSYLREWYLQDPYPNPSKKRELAQATGLTPTQVGNWFKNRRQRDR [L9Y]: the abundance fitness was -0.001 ± 0.11.

Turning to CFKERTRSDLREWYLQDPYPNPSKKRELAQATGLTPTQVGNWFKNRRQRDR [L9D], the abundance fitness is -0.825 ± 0.13.

CFKERTRSHLREWYLQDPYPNPSKKRELAQATGLTPTQVGNWFKNRRQRDR [L9H]: the abundance fitness is -0.417 ± 0.16.

Consider CFKERTRSELREWYLQDPYPNPSKKRELAQATGLTPTQVGNWFKNRRQRDR [L9E], for which the abundance fitness was -0.481 ± 0.066.

Consider CFKERTRSPLREWYLQDPYPNPSKKRELAQATGLTPTQVGNWFKNRRQRDR [L9P], for which the abundance fitness was -0.644 ± 0.1.

For CFKERTRSALREWYLQDPYPNPSKKRELAQATGLTPTQVGNWFKNRRQRDR [L9A], the abundance fitness was -0.43 ± 0.064.

For the variant CFKERTRSRLREWYLQDPYPNPSKKRELAQATGLTPTQVGNWFKNRRQRDR [L9R], the abundance fitness was -0.369 ± 0.063.

For the variant CFKERTRSWLREWYLQDPYPNPSKKRELAQATGLTPTQVGNWFKNRRQRDR [L9W], the abundance fitness was -0.632 ± 0.05.

Take CFKERTRSMLREWYLQDPYPNPSKKRELAQATGLTPTQVGNWFKNRRQRDR [L9M]: the abundance fitness is -0.199 ± 0.11.

As to CFKERTRSTLREWYLQDPYPNPSKKRELAQATGLTPTQVGNWFKNRRQRDR [L9T], the abundance fitness was -0.138 ± 0.054.

For CFKERTRSLLQEWYLQDPYPNPSKKRELAQATGLTPTQVGNWFKNRRQRDR [R11Q], the abundance fitness is -0.23 ± 0.09.

Turning to CFKERTRSLLMEWYLQDPYPNPSKKRELAQATGLTPTQVGNWFKNRRQRDR [R11M], the abundance fitness came to 0.077 ± 0.065.

In the case of CFKERTRSLLFEWYLQDPYPNPSKKRELAQATGLTPTQVGNWFKNRRQRDR [R11F], the abundance fitness is -0.061 ± 0.073.

With CFKERTRSLLTEWYLQDPYPNPSKKRELAQATGLTPTQVGNWFKNRRQRDR [R11T], the abundance fitness worked out at 0.106 ± 0.077.

In the case of CFKERTRSLLCEWYLQDPYPNPSKKRELAQATGLTPTQVGNWFKNRRQRDR [R11C], the abundance fitness is -0.392 ± 0.16.

CFKERTRSLLGEWYLQDPYPNPSKKRELAQATGLTPTQVGNWFKNRRQRDR [R11G]: the abundance fitness was -0.302 ± 0.054.

Consider CFKERTRSLLDEWYLQDPYPNPSKKRELAQATGLTPTQVGNWFKNRRQRDR [R11D], for which the abundance fitness is -0.22 ± 0.058.

For CFKERTRSLLIEWYLQDPYPNPSKKRELAQATGLTPTQVGNWFKNRRQRDR [R11I], the abundance fitness is 0.004 ± 0.075.

Take CFKERTRSLLLEWYLQDPYPNPSKKRELAQATGLTPTQVGNWFKNRRQRDR [R11L]: the abundance fitness was -0.026 ± 0.058.

For CFKERTRSLLHEWYLQDPYPNPSKKRELAQATGLTPTQVGNWFKNRRQRDR [R11H], the abundance fitness is -0.227 ± 0.13.

With CFKERTRSLLWEWYLQDPYPNPSKKRELAQATGLTPTQVGNWFKNRRQRDR [R11W], the abundance fitness was -0.07 ± 0.063.

As for CFKERTRSLLKEWYLQDPYPNPSKKRELAQATGLTPTQVGNWFKNRRQRDR [R11K], the abundance fitness is -0.138 ± 0.093.

On to CFKERTRSLLPEWYLQDPYPNPSKKRELAQATGLTPTQVGNWFKNRRQRDR [R11P], for which the abundance fitness was -0.514 ± 0.15.

In the case of CFKERTRSLLAEWYLQDPYPNPSKKRELAQATGLTPTQVGNWFKNRRQRDR [R11A], the abundance fitness was -0.131 ± 0.053.

Turning to CFKERTRSLLYEWYLQDPYPNPSKKRELAQATGLTPTQVGNWFKNRRQRDR [R11Y], the abundance fitness is -0.408 ± 0.24.

In the case of CFKERTRSLLEEWYLQDPYPNPSKKRELAQATGLTPTQVGNWFKNRRQRDR [R11E], the abundance fitness is -0.047 ± 0.085.

CFKERTRSLLVEWYLQDPYPNPSKKRELAQATGLTPTQVGNWFKNRRQRDR [R11V]: the abundance fitness is -0.141 ± 0.053.

In the case of CFKERTRSLLSEWYLQDPYPNPSKKRELAQATGLTPTQVGNWFKNRRQRDR [R11S], the abundance fitness was -0.021 ± 0.059.

As to CFKERTRSLLNEWYLQDPYPNPSKKRELAQATGLTPTQVGNWFKNRRQRDR [R11N], the abundance fitness was -0.111 ± 0.071.

On to CFKERTRSLGREWYLQDPYPNPSKKRELAQATGLTPTQVGNWFKNRRQRDR [L10G], for which the abundance fitness was -0.961 ± 0.16.

Regarding CFKERTRSLSREWYLQDPYPNPSKKRELAQATGLTPTQVGNWFKNRRQRDR [L10S], the abundance fitness was -0.647 ± 0.098.

For CFKERTRSLVREWYLQDPYPNPSKKRELAQATGLTPTQVGNWFKNRRQRDR [L10V], the abundance fitness is -1.01 ± 0.17.

Turning to CFKERTRSLYREWYLQDPYPNPSKKRELAQATGLTPTQVGNWFKNRRQRDR [L10Y], the abundance fitness is -0.561 ± 0.36.

As to CFKERTRSLAREWYLQDPYPNPSKKRELAQATGLTPTQVGNWFKNRRQRDR [L10A], the abundance fitness was -0.895 ± 0.058.

CFKERTRSLRREWYLQDPYPNPSKKRELAQATGLTPTQVGNWFKNRRQRDR [L10R]: the abundance fitness is -0.93 ± 0.077.

Consider CFKERTRSLMREWYLQDPYPNPSKKRELAQATGLTPTQVGNWFKNRRQRDR [L10M], for which the abundance fitness is -0.381 ± 0.11.

For CFKERTRSLNREWYLQDPYPNPSKKRELAQATGLTPTQVGNWFKNRRQRDR [L10N], the abundance fitness was -0.724 ± 0.28.

Turning to CFKERTRSLCREWYLQDPYPNPSKKRELAQATGLTPTQVGNWFKNRRQRDR [L10C], the abundance fitness is -0.88 ± 0.28.

Turning to CFKERTRSLTREWYLQDPYPNPSKKRELAQATGLTPTQVGNWFKNRRQRDR [L10T], the abundance fitness was -0.974 ± 0.23.

With CFKERTRSLEREWYLQDPYPNPSKKRELAQATGLTPTQVGNWFKNRRQRDR [L10E], the abundance fitness is -0.886 ± 0.084.

For the variant CFKERTRSLPREWYLQDPYPNPSKKRELAQATGLTPTQVGNWFKNRRQRDR [L10P], the abundance fitness is -0.872 ± 0.093.

Turning to CFKERTRSLWREWYLQDPYPNPSKKRELAQATGLTPTQVGNWFKNRRQRDR [L10W], the abundance fitness is -1.03 ± 0.14.
